Patent US20230158141A1 (YAFEI SHANGHAI BIOLOG MEDICINE SCIENCE AND TECHNOLOGY, published 2023)

T1: IL-10R2-Fc/His (UniProt Q08334 20-220, limits assumed)
T1 sequence (looked up): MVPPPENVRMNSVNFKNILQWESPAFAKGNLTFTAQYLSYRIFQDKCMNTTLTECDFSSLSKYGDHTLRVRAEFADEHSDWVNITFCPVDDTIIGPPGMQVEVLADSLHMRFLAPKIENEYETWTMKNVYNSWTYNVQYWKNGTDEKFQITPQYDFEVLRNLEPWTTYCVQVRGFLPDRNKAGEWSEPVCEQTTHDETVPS

T2: IL-10R1-Fc (UniProt Q13651 22-235, limits assumed)
T2 sequence (looked up): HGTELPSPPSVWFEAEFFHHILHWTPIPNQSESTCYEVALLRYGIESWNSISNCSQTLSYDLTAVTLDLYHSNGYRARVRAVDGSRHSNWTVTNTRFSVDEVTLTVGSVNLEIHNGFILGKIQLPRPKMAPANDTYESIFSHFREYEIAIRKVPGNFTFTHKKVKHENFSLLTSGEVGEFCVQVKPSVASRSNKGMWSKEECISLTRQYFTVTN


Key:
IL-10R2-Fc/His = molecular target: T1, IL-10R2-Fc/His; experiment: ELISA, IL-10R2-Fc/His coated
IL-10R1-Fc = molecular target: T2, IL-10R1-Fc; experiment: ELISA, IL-10R1-Fc coated

Row | Binder | Decreased fold of binding to ligand after Conjugating with S48 (IL-10R2-Fc/His) [fold] | Decreased fold of binding to ligand after Conjugating with S48 (IL-10R1-Fc) [fold] | Binding recovery (>60%) (IL-10R2-Fc/His) [%] | Binding recovery (>60%) (IL-10R1-Fc) [%]
1 | IL-10 Asn18Cys-S48 (ligand, human, UniProt P22301 19-178, looked up, S48 on Cys 18, mature) SPGQGTQSENSCTHFPGCLPNMLRDLRDAFSRVKTFFQMKDQLDNLLLKESLLEDFKGYLGCQALSEMIQFYLEEVMPQAENQDPDIKAHVNSLGENLKTLRLRLRRCHRFLPCENKSKAVEQVKNAFNKLQEKGIYKAMSEFDIFINYIEAYMTMKIRN | 4 | 12 |  | 
2 | IL-10 Asn21Cys-R4-18 (ligand, human, UniProt P22301 19-178, looked up, R4-18 on Cys 21, mature) SPGQGTQSENSCTHFPGNLPCMLRDLRDAFSRVKTFFQMKDQLDNLLLKESLLEDFKGYLGCQALSEMIQFYLEEVMPQAENQDPDIKAHVNSLGENLKTLRLRLRRCHRFLPCENKSKAVEQVKNAFNKLQEKGIYKAMSEFDIFINYIEAYMTMKIRN |  |  | 85.3 | 99.7
3 | IL-10 Asn21Cys-S48 (ligand, human, UniProt P22301 19-178, looked up, S48 on Cys 21, mature) SPGQGTQSENSCTHFPGNLPCMLRDLRDAFSRVKTFFQMKDQLDNLLLKESLLEDFKGYLGCQALSEMIQFYLEEVMPQAENQDPDIKAHVNSLGENLKTLRLRLRRCHRFLPCENKSKAVEQVKNAFNKLQEKGIYKAMSEFDIFINYIEAYMTMKIRN | 6 | 7 |  | 
4 | IL-10 Asn97Cys-R4-18 (ligand, human, UniProt P22301 19-178, looked up, R4-18 on Cys 97, mature) SPGQGTQSENSCTHFPGNLPNMLRDLRDAFSRVKTFFQMKDQLDNLLLKESLLEDFKGYLGCQALSEMIQFYLEEVMPQAENQDPDIKAHVNSLGECLKTLRLRLRRCHRFLPCENKSKAVEQVKNAFNKLQEKGIYKAMSEFDIFINYIEAYMTMKIRN |  |  | 80.7 | 94.5
5 | IL-10 His90Cys-S48 (ligand, human, UniProt P22301 19-178, looked up, S48 on Cys 90, mature) SPGQGTQSENSCTHFPGNLPNMLRDLRDAFSRVKTFFQMKDQLDNLLLKESLLEDFKGYLGCQALSEMIQFYLEEVMPQAENQDPDIKACVNSLGENLKTLRLRLRRCHRFLPCENKSKAVEQVKNAFNKLQEKGIYKAMSEFDIFINYIEAYMTMKIRN | 7 | 8 |  | 
6 | IL-10 Lys119Cys-S48 (ligand, human, UniProt P22301 19-178, looked up, S48 on Cys 119, mature) SPGQGTQSENSCTHFPGNLPNMLRDLRDAFSRVKTFFQMKDQLDNLLLKESLLEDFKGYLGCQALSEMIQFYLEEVMPQAENQDPDIKAHVNSLGENLKTLRLRLRRCHRFLPCENKSCAVEQVKNAFNKLQEKGIYKAMSEFDIFINYIEAYMTMKIRN | 4 | 3 |  | 
7 | IL-10 Lys130Cys-S48 (ligand, human, UniProt P22301 19-178, looked up, S48 on Cys 130, mature) SPGQGTQSENSCTHFPGNLPNMLRDLRDAFSRVKTFFQMKDQLDNLLLKESLLEDFKGYLGCQALSEMIQFYLEEVMPQAENQDPDIKAHVNSLGENLKTLRLRLRRCHRFLPCENKSKAVEQVKNAFNCLQEKGIYKAMSEFDIFINYIEAYMTMKIRN | 3 | 3 |  | 
8 | IL-10 Met22Cys-S48 (ligand, human, UniProt P22301 19-178, looked up, S48 on Cys 22, mature) SPGQGTQSENSCTHFPGNLPNCLRDLRDAFSRVKTFFQMKDQLDNLLLKESLLEDFKGYLGCQALSEMIQFYLEEVMPQAENQDPDIKAHVNSLGENLKTLRLRLRRCHRFLPCENKSKAVEQVKNAFNKLQEKGIYKAMSEFDIFINYIEAYMTMKIRN | 6 | 5 |  | 
9 | IL-10 Thr35Cys-S48 (ligand, human, UniProt P22301 19-178, looked up, S48 on Cys 35, mature) SPGQGTQSENSCTHFPGNLPNMLRDLRDAFSRVKCFFQMKDQLDNLLLKESLLEDFKGYLGCQALSEMIQFYLEEVMPQAENQDPDIKAHVNSLGENLKTLRLRLRRCHRFLPCENKSKAVEQVKNAFNKLQEKGIYKAMSEFDIFINYIEAYMTMKIRN | 6 | 36 |  | 
10 | IL-10 Thr100Cys-S48 (ligand, human, UniProt P22301 19-178, looked up, S48 on Cys 100, mature) SPGQGTQSENSCTHFPGNLPNMLRDLRDAFSRVKTFFQMKDQLDNLLLKESLLEDFKGYLGCQALSEMIQFYLEEVMPQAENQDPDIKAHVNSLGENLKCLRLRLRRCHRFLPCENKSKAVEQVKNAFNKLQEKGIYKAMSEFDIFINYIEAYMTMKIRN | 8 | 4 |  | 
11 | IL-10 Arg32Cys-S48 (ligand, human, UniProt P22301 19-178, looked up, S48 on Cys 32, mature) SPGQGTQSENSCTHFPGNLPNMLRDLRDAFSCVKTFFQMKDQLDNLLLKESLLEDFKGYLGCQALSEMIQFYLEEVMPQAENQDPDIKAHVNSLGENLKTLRLRLRRCHRFLPCENKSKAVEQVKNAFNKLQEKGIYKAMSEFDIFINYIEAYMTMKIRN | 9 | 13 |  | 
12 | IL-10 Arg104Cys-R4-20 (ligand, human, UniProt P22301 19-178, looked up, R4-20 on Cys 104, mature) SPGQGTQSENSCTHFPGNLPNMLRDLRDAFSRVKTFFQMKDQLDNLLLKESLLEDFKGYLGCQALSEMIQFYLEEVMPQAENQDPDIKAHVNSLGENLKTLRLCLRRCHRFLPCENKSKAVEQVKNAFNKLQEKGIYKAMSEFDIFINYIEAYMTMKIRN |  |  | 96.6 | 98.5
13 | IL-10 Arg107Cys-R4-20 (ligand, human, UniProt P22301 19-178, looked up, R4-20 on Cys 107, mature) SPGQGTQSENSCTHFPGNLPNMLRDLRDAFSRVKTFFQMKDQLDNLLLKESLLEDFKGYLGCQALSEMIQFYLEEVMPQAENQDPDIKAHVNSLGENLKTLRLRLRCCHRFLPCENKSKAVEQVKNAFNKLQEKGIYKAMSEFDIFINYIEAYMTMKIRN |  |  | 84 | 99.5
14 | IL-10 Asn18Cys-R4-18 (ligand, human, UniProt P22301 19-178, looked up, R4-18 on Cys 18, mature) SPGQGTQSENSCTHFPGCLPNMLRDLRDAFSRVKTFFQMKDQLDNLLLKESLLEDFKGYLGCQALSEMIQFYLEEVMPQAENQDPDIKAHVNSLGENLKTLRLRLRRCHRFLPCENKSKAVEQVKNAFNKLQEKGIYKAMSEFDIFINYIEAYMTMKIRN |  |  | 99.8 | 92.3
15 | IL-10 Asn97Cys-S48 (ligand, human, UniProt P22301 19-178, looked up, S48 on Cys 97, mature) SPGQGTQSENSCTHFPGNLPNMLRDLRDAFSRVKTFFQMKDQLDNLLLKESLLEDFKGYLGCQALSEMIQFYLEEVMPQAENQDPDIKAHVNSLGECLKTLRLRLRRCHRFLPCENKSKAVEQVKNAFNKLQEKGIYKAMSEFDIFINYIEAYMTMKIRN | 4 | 5 |  | 
16 | IL-10 Asp25Cys-S48 (ligand, human, UniProt P22301 19-178, looked up, S48 on Cys 25, mature) SPGQGTQSENSCTHFPGNLPNMLRCLRDAFSRVKTFFQMKDQLDNLLLKESLLEDFKGYLGCQALSEMIQFYLEEVMPQAENQDPDIKAHVNSLGENLKTLRLRLRRCHRFLPCENKSKAVEQVKNAFNKLQEKGIYKAMSEFDIFINYIEAYMTMKIRN | 5 | 3 |  | 
17 | IL-10 His90Cys-R4-19 (ligand, human, UniProt P22301 19-178, looked up, R4-19 on Cys 90, mature) SPGQGTQSENSCTHFPGNLPNMLRDLRDAFSRVKTFFQMKDQLDNLLLKESLLEDFKGYLGCQALSEMIQFYLEEVMPQAENQDPDIKACVNSLGENLKTLRLRLRRCHRFLPCENKSKAVEQVKNAFNKLQEKGIYKAMSEFDIFINYIEAYMTMKIRN |  |  | 79 | 86.5
18 | IL-10 Lys34Cys-R4-7 (ligand, human, UniProt P22301 19-178, looked up, R4-7 on Cys 34, mature) SPGQGTQSENSCTHFPGNLPNMLRDLRDAFSRVCTFFQMKDQLDNLLLKESLLEDFKGYLGCQALSEMIQFYLEEVMPQAENQDPDIKAHVNSLGENLKTLRLRLRRCHRFLPCENKSKAVEQVKNAFNKLQEKGIYKAMSEFDIFINYIEAYMTMKIRN |  |  | 97.3 | 99.6
19 | IL-10 Lys34Cys-S48 (ligand, human, UniProt P22301 19-178, looked up, S48 on Cys 34, mature; also called IL10-K34C-S48) SPGQGTQSENSCTHFPGNLPNMLRDLRDAFSRVCTFFQMKDQLDNLLLKESLLEDFKGYLGCQALSEMIQFYLEEVMPQAENQDPDIKAHVNSLGENLKTLRLRLRRCHRFLPCENKSKAVEQVKNAFNKLQEKGIYKAMSEFDIFINYIEAYMTMKIRN | 5 | 50 |  | 
20 | IL-10 Lys119Cys-R4-7 (ligand, human, UniProt P22301 19-178, looked up, R4-7 on Cys 119, mature) SPGQGTQSENSCTHFPGNLPNMLRDLRDAFSRVKTFFQMKDQLDNLLLKESLLEDFKGYLGCQALSEMIQFYLEEVMPQAENQDPDIKAHVNSLGENLKTLRLRLRRCHRFLPCENKSCAVEQVKNAFNKLQEKGIYKAMSEFDIFINYIEAYMTMKIRN |  |  | 106 | 99
21 | IL-10 Lys130Cys-R4-7 (ligand, human, UniProt P22301 19-178, looked up, R4-7 on Cys 130, mature) SPGQGTQSENSCTHFPGNLPNMLRDLRDAFSRVKTFFQMKDQLDNLLLKESLLEDFKGYLGCQALSEMIQFYLEEVMPQAENQDPDIKAHVNSLGENLKTLRLRLRRCHRFLPCENKSKAVEQVKNAFNCLQEKGIYKAMSEFDIFINYIEAYMTMKIRN |  |  | 99.7 | 100
22 | IL-10 Met22Cys-R4-1 (ligand, human, UniProt P22301 19-178, looked up, R4-1 on Cys 22, mature) SPGQGTQSENSCTHFPGNLPNCLRDLRDAFSRVKTFFQMKDQLDNLLLKESLLEDFKGYLGCQALSEMIQFYLEEVMPQAENQDPDIKAHVNSLGENLKTLRLRLRRCHRFLPCENKSKAVEQVKNAFNKLQEKGIYKAMSEFDIFINYIEAYMTMKIRN |  |  | 80 | 96.8
23 | IL-10 Ser31Cys-R4-2 (ligand, human, UniProt P22301 19-178, looked up, R4-2 on Cys 31, mature) SPGQGTQSENSCTHFPGNLPNMLRDLRDAFCRVKTFFQMKDQLDNLLLKESLLEDFKGYLGCQALSEMIQFYLEEVMPQAENQDPDIKAHVNSLGENLKTLRLRLRRCHRFLPCENKSKAVEQVKNAFNKLQEKGIYKAMSEFDIFINYIEAYMTMKIRN |  |  | 87.4 | 125
